Reference: patent publication US20260070987A1
Numbering of substitutions follows the chain as printed. In names and notes the source's numbering stands.

B1: equine IgG1 N434W (antibody, part only; not given: Variable domains, not shown: another chain or arm of the molecule)
constant: ASTTAPKVFALAPGCGTTSDSTVALGCLVSGYFPEPVKVSWNSGSLTSGVHTFPSVLQSSGFYSLSSMVTVPASTWTSETYICNVVHAASNFKVDKRIEPIPDNHQKVCDMSKCPKCPAPELLGGPSVFIFPPNPKDTLMITRTPEVTCVVVDVSQENPDVKFNWYMDGVEVRTATTRPKEEQFNSTYRVVSVLRIQHQDWLSGKEFKCKVNNQALPQPIERTITKTKGRSQEPQVYVLAPHPDELSKSKVSVTCLVKDFYPPEINIEWQSNGQPELETKYSTTQAQQDSDGSYFLYSKLSVDRNRWQQGTTFTCGVMHEALHWHYTQKNVSKNPGK
B2: equine IgG1 N434F (antibody, part only; not given: variable domains, not shown: another chain or arm of the molecule)
constant: B1 constant with W324F
B3: equine IgG7 Y436K mutant (antibody, part only; not given: variable domains, not shown: another chain or arm of the molecule)
constant: ASTTAPKVFPLASHSAATSGSTVALGCLVSSYFPEPVTVSWNSGALTSGVHTFPSVLQSSGLYSLSSMVTVPASSLKSQTYICNVAHPASSTKVDKKIVIKECGGCPTCPECLSVGPSVFIFPPKPKDVLMISRTPTVTCVVVDVGHDFPDVQFNWYVDGVETHTATTEPKQEQNNSTYRVVSILAIQHKDWLSGKEFKCKVNNQALPAPVQKTISKPTGQPREPQVYVLAPHRDELSKNKVSVTCLVKDFYPTDIDIEWKSNGQPEPETKYSTTPAQLDSDGSYFLYSKLTVETNRWQQGTTFTCAVMHEALHNHKTEKSVSKSPGK
B4: equine IgG7 T286I mutant (antibody, part only; not given: variable domains, not shown: another chain or arm of the molecule)
constant: B3 constant with T165I, K317Y
B5: equine IgG7 T286M mutant (antibody, part only; not given: variable domains, not shown: another chain or arm of the molecule)
constant: B3 constant with T165M, K317Y
B6: equine IgG7 T286G mutant (antibody, part only; not given: variable domains, not shown: another chain or arm of the molecule)
constant: B3 constant with T165G, K317Y
B7: equine IgG7 T286Y mutant (antibody, part only; not given: Variable domains, not shown: another chain or arm of the molecule)
constant: B3 constant with T165Y, K317Y
B8: equine IgG7 T286F mutant (antibody, part only; not given: variable domains, not shown: another chain or arm of the molecule)
constant: B3 constant with T165F, K317Y
B9: equine IgG7 T286W mutant (antibody, part only; not given: variable domains, not shown: another chain or arm of the molecule)
constant: B3 constant with T165W, K317Y
B10: equine IgG7 Y436Q mutant (antibody, part only; not given: Variable domains, not shown: another chain or arm of the molecule)
constant: B3 constant with K317Q
B11: equine IgG7 T286C mutant (antibody, part only; not given: variable domains, not shown: another chain or arm of the molecule)
constant: B3 constant with T165C, K317Y
B12: equine IgG7 T286Q mutant (antibody, part only; not given: variable domains, not shown: another chain or arm of the molecule)
constant: B3 constant with T165Q, K317Y
B13: equine IgG7 Y436N mutant (antibody, part only; not given: Variable domains, not shown: another chain or arm of the molecule)
constant: B3 constant with K317N
B14: equine IgG7 Y436T mutant (antibody, part only; not given: variable domains, not shown: another chain or arm of the molecule)
constant: B3 constant with K317T
B15: equine IgG7 T286K mutant (antibody, part only; not given: variable domains, not shown: another chain or arm of the molecule)
constant: B3 constant with T165K, K317Y
B16: equine IgG7 Y436M mutant (antibody, part only; not given: variable domains, not shown: another chain or arm of the molecule)
constant: B3 constant with K317M
B17: equine IgG7 Y436S mutant (antibody, part only; not given: variable domains, not shown: another chain or arm of the molecule)
constant: B3 constant with K317S
B18: equine IgG7 T286L mutant (antibody, part only; not given: Variable domains, not shown: another chain or arm of the molecule)
constant: B3 constant with T165L, K317Y
B19: equine IgG7 T286H mutant (antibody, part only; not given: variable domains, not shown: another chain or arm of the molecule)
constant: B3 constant with T165H, K317Y
B20: equine IgG7 T286P mutant (antibody, part only; not given: variable domains, not shown: another chain or arm of the molecule)
constant: B3 constant with T165P, K317Y
B21: equine IgG7 T286E mutant (antibody, part only; not given: variable domains, not shown: another chain or arm of the molecule)
constant: B3 constant with T165E, K317Y
B22: equine IgG7 T286S mutant (antibody, part only; not given: variable domains, not shown: another chain or arm of the molecule)
constant: B3 constant with T165S, K317Y
B23: equine IgG7 Y436V mutant (antibody, part only; not given: Variable domains, not shown: another chain or arm of the molecule)
constant: B3 constant with K317V
B24: equine IgG7 T286D mutant (antibody, part only; not given: Variable domains, not shown: another chain or arm of the molecule)
constant: B3 constant with T165D, K317Y
B25: equine IgG7 T286V mutant (antibody, part only; not given: Variable domains, not shown: another chain or arm of the molecule)
constant: B3 constant with T165V, K317Y
B26: equine IgG7 T286A mutant (antibody, part only; not given: variable domains, not shown: another chain or arm of the molecule)
constant: B3 constant with T165A, K317Y
B27: equine IgG7 Y436R mutant (antibody, part only; not given: variable domains, not shown: another chain or arm of the molecule)
constant: B3 constant with K317R
B28: equine IgG7 Y436W mutant (antibody, part only; not given: Variable domains, not shown: another chain or arm of the molecule)
constant: B3 constant with K317W
B29: equine IgG7 T286R mutant (antibody, part only; not given: variable domains, not shown: another chain or arm of the molecule)
constant: B3 constant with T165R, K317Y

The binders below were run against equine FcRn (large alpha subunit p51) / equine beta-2-microglobulin complex, biotinylated (equine) (UniProt P30441) (assay: SPR (Biacore), pH 6).
Chain of UniProt P30441 (P30441 21-118, one chain of several): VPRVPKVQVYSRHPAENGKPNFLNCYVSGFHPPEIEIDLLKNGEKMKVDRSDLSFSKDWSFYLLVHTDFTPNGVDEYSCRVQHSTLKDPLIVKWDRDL

Binder	Kd [nM]
B1	1.86
B2	2.83

The binders below were run against equine FcRn (large alpha subunit p51) in complex with equine beta-2-microglobulin (equine) (UniProt F6XZ61) (assay: SPR (Biacore), pH 6).
Chain of UniProt F6XZ61 (F6XZ61 entry or part of it, one chain of several): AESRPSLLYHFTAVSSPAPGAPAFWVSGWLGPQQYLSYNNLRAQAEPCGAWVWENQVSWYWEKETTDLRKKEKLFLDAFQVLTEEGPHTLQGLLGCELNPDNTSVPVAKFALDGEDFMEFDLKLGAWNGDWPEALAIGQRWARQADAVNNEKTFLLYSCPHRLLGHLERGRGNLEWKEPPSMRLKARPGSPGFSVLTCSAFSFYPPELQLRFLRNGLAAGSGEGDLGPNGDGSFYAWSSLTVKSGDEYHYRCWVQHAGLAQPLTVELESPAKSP

Binder	Kd [nM]
B3	74
B4	15.8
B5	19.3
B6	18.2
B7	14.9
B8	7.8
B9	15.4
B10	9.1
B11	84.4
B12	7.7
B13	65.5
B14	36.2
B15	20.6
B16	5.5
B17	169
B18	14
B19	16
B20	6.9
B21	35.5
B22	17.1
B23	6.7
B24	47.5
B25	2.3
B26	110
B27	7.7
B28	28.2
B29	7.8

Each binder was assayed against equine FcRn (large alpha subunit p51) / equine beta-2-microglobulin complex, biotinylated (equine) (UniProt P30441) (assay: SPR (Biacore), pH 7.4).

Binder	Kd [nM]
B1	7310
B2	14600
